# According to the supplement of paper PMC12764529:
# ± gives the half width of the 95% confidence interval.
# Key:
# [1] = folding stability dG unfold (combined trypsin and chymotrypsin); higher = more stable
# Procedure, shortened: (§1)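 Only designs with AlphaFold2 dimer inter-PAE above 15 were retained; each was a mini-protein under 80 residues with no cysteine, in a PA-tagged cDNA display construct. After digestion with trypsin and chymotrypsin and sequencing, K50 was inferred by Bayesian fitting of counts, and unfolding free energy was derived per protease or combined against a sequence-predicted unfolded-state K50 and a shared folded-state K50.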
# [2] = folding stability dG unfold from trypsin proteolysis; higher = more stable
# Procedure, shortened: as §1
# [3] = folding stability dG unfold from chymotrypsin proteolysis; higher = more stable
# Procedure, shortened: as §1
Sequence,folding stability dG unfold [1] [kcal/mol],folding stability dG unfold [2] [kcal/mol],folding stability dG unfold [3] [kcal/mol]
SAGGVVTFLPGNLIKTTYFDPEKGTRTETLYYVPPDGTTTKLKTTVTPIPPTPLERPFFFGPDDVPVLSAGG [r13_646_JUSTAS],0.474 ± 0.15,0.517 ± 0.059,0.306 ± 0.21
SAMKPFPAKEAIEQILEEMEDMPLPPGQEEVEFQIRLPDDGAPVQISIERNPGKWKIEIYVGNKPIWITSAG [r14_199_TrROS],2.05 ± 0.12,1.7 ± 0.082,2.43 ± 0.14
SAGGSAGGSAGKLPPGAKVEEVFEVEIEVTYLNPDTGEEVEKEKITVRVVKVDGKLVIEFSAGGSAGGSAGG [r11_415_TrROS_Hall],2.04 ± 0.25,1.39 ± 0.11,2.79 ± 0.31
SAGGSAGGGSSITPVEVTPLPEDKYRVLIRITTYLPGGKPRTEEIEVEMPPDETAEEAAARVLSSAGGSAGG [r6_329_JUSTAS],0.367 ± 0.075,0.341 ± 0.044,0.29 ± 0.11
SAGGSAGGSMKLPPELKGKKIRIRVRNKNGETVEAEATVLEDGTIEIKIEGLSEEEITEIEIESAGGSAGGS [r12_477_TrROS_Hall],2.3 ± 0.076,2.36 ± 0.038,2.21 ± 0.035
SAGGSAGGSAGMPVKVVLVKWKGGGLEPEGGEEREVEIGPEELEKLVKEAEKEGYEVYPASAGGSAGGSAGG [r17_18_TrMRF],0.0684 ± 0.36,0.165 ± 0.11,-0.126 ± 0.35
SAGPWMPYYVKVKFPDEEKLEKLVDEIQDESGFNMQVKKNPENGTRTVRVNMPPNIMEALKKHGFEIVSAGG [r19_306_TrROS],0.337 ± 0.34,0.415 ± 0.11,-0.208 ± 0.46
SKVRELLREIARPHGMPITDVKVEPPPDGWHKVTFQIQFPMKDPNGQPMRRMTFPATITVRNGKITEITISA [r9_519_TrROS],1.72 ± 0.34,1.54 ± 0.11,1.56 ± 0.12
SAGGSAGGMKLLKVVVERKDGSKRELEIPEELLVELGRPPTPEEIAKLLGIKPEDIVRVEIEDVSAGGSAGG [r6_166_TrMRF],4.74 ± 0.2,3.65 ± 0.15,4.87 ± 0.21
SAGGSAMVKTADGKEVKVEKVIPLEEMSLEELKALAEKNNKPILIVDKKTKKVIVLTKEELEKLLKSAGGSA [r15_904_TrROS_Hall],1.33 ± 0.22,0.858 ± 0.066,1.73 ± 0.071
SAGGKKNKPKPKVKVKILSVTANPDPNTPGLLSVSVPVLIESDDEEFALALAKELAKLPNVKVVVLGGSAGG [r13_606_TrMRF],1.42 ± 0.048,1.34 ± 0.023,1.42 ± 0.037
SAGGSAPREIPIMIRVPGYQIEIHKITVPPNGMVQIGLEWRNPGGDKPVTINIWLPLNEIKDFIKASAGGSA [r15_56_TrROS],2.54 ± 0.14,1.83 ± 0.042,3.1 ± 0.042
SAGGSAGGSAPNMDWVMIPIRVPPGEPPKVKITFPDGPTREFDPGRWVWIWFPPGDPMKIEPESAGGSAGGS [r12_553_TrROS],1.54 ± 0.15,1.04 ± 0.035,1.87 ± 0.13
SAGGSAGGSAGGKKIKILVKIKDLKKLKGLKPGDLALIEIEVEVKPEKKTEKKYTYKKKSAGGSAGGSAGGS [r10_1233_TrROS_Hall],0.693 ± 0.21,0.432 ± 0.23,0.908 ± 0.29
SAGGSAGGSADAVVVEVTLPGGGKARAVFFPDGSVVIVVDFPDGRRAVIFLENNEIVVLPVDSAGGSAGGSA [r18_285_TrMRF],3.63 ± 0.12,3.73 ± 0.2,3.15 ± 0.19
SAGGSEEKVFEFEVVEVTSVEVKEDGTVTIEVTVRLENGLLLTVRVTFDLATNEVTIEVELRPLPESAGGSA [r2_321_TrROS_Hall],4.41 ± 0.2,3.38 ± 0.35,4.49 ± 0.19
SAGGPWVVIKIRTPNKPIEIPIPGFKIENTGDSMTIVFPPDDPDQVLDALEKASPGIKITKIEVVKPSAGGS [r8_490_TrROS],0.575 ± 0.1,0.65 ± 0.06,0.318 ± 0.12
SAGGSAGGSKAEVVEEKEIFTFPNGFVIKLTKVKNENGEEFEFIEIVPLPPELTEEELKKLKESAGGSAGGS [r12_775_TrROS_Hall],1.79 ± 0.065,0.711 ± 0.033,2.14 ± 0.023
SAGGSAGGSAGGVDPTPDGILRVRVVIKDPNGDVFSEKEVEMTPEELEALKKAGYVILESAGGSAGGSAGGS [r10_749_JUSTAS],1.82 ± 0.054,1.43 ± 0.033,2.022 ± 0.018
SAGGSALPPGQEVEITIMIMVMIYNPENGRMWMVMASVEIEIRVDPKNGKLEIKIKKISISIFPMDSAGGSA [r15_517_TrROS],> 6,4.23 ± 0.72,5.8 ± 0.52
SAMKVTITVTKHTLPDGTPYYTVTITDPSTGKTFSGPVSSEEEAKATAQALADKIEAEGTPVTITFTDDSAG [r14_263_JUSTAS],3.99 ± 0.14,3.97 ± 0.23,4.03 ± 0.086
